Data from patent US20200109169A1 (BGI SHENZHEN, published 2020).

B1: mutant polypeptide TLAFLIFNI (SEQ ID NO: 1) (peptide)
peptide: TLAFLIFNI
notes: Made by solid phase synthesis, purity >90% by HPLC

The binders below were run against T1, HLA-A0201 on the surface of T2 cells (human) (assay: T2 cell peptide loading, flow cytometry with anti-HLA-A*02:01 FITC antibody, peptide 100 uM).
T1 construct: MHC class I molecule on T2 cells; surface HLA-A*02:01 was read with an anti-HLA-A*02:01 FITC monoclonal antibody after overnight loading with peptide
Procedure: After centrifugation at 200 g for 5 minutes for cell collection, the collected cells were washed with phosphate buffer saline (PBS) buffer twice, before incubated with anti-HLA-A*02:01 FITC monoclonal antibody at 4° C. for 30 minutes. The mean fluorescence intensity of cells was then detected and analyzed by the flow cytometry (BD FACSJazz™)) and its software.

FI (fluorescence index)	Mean fluorescence intensity	Binder
1.63	650	PLAFLIFNI (Made by solid phase synthesis) [wild-type polypeptide PLAFLIFNI (SEQ ID NO: 7)]
1.6	643	B1
1.51	620	TLAFLIFNV (Made by solid phase synthesis) [mutant polypeptide's variant TLAFLIFNV (SEQ ID NO: 3)]
1.74	677	TMAFLIFNV (Made by solid phase synthesis) [mutant polypeptide's variant TMAFLIFNV (SEQ ID NO: 6)]
1.67	660	TMAFLIFNI (Made by solid phase synthesis) [mutant polypeptide's variant TMAFLIFNI (SEQ ID NO: 2)]
1.79	690	TMAFLIFNL (Made by solid phase synthesis) [mutant polypeptide's variant TMAFLIFNL (SEQ ID NO: 5)]
1.49	615	TLAFLIFNL (Made by solid phase synthesis) [mutant polypeptide's variant TLAFLIFNL (SEQ ID NO: 4)]
